Target: T1, FcεRII (CD23, low affinity IgE receptor) (human, UniProt P06734 1-321)
T1 construct: whole, on cells
T1 sequence (looked up): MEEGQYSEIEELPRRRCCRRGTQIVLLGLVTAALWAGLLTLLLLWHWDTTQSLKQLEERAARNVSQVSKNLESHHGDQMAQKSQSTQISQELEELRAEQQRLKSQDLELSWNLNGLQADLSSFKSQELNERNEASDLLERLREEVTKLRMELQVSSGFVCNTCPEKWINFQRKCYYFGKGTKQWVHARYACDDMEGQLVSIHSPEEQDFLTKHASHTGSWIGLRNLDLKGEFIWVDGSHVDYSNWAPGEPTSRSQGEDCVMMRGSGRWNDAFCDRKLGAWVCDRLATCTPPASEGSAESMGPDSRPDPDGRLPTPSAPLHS
Assay: flow cytometry on human primary monocytes and U937 cells
Excerpt: FIG. 3: Flow cytometric histograms showing HMW-MAA-IgE binding. A: Binding of chimaeric IgE to A375 melanoma tumour cells (left) but not to melanocytes (right). B: Binding of IgE to U937 monocytic cells (left) and to primary […] (right). Antibody binding was detected using a goat anti-human IgE-FITC antibody. C: Flow cytometric histograms showing HMW-MAA-IgG binding to A375 melanoma tumour cells (left) and U937 monocytic cells (right). Antibody binding was detected using a goat anti-human IgG-FITC antibody.
The interactions of anti-HMW-MAA antibodies with A375 melanoma tumour cells were analysed by flow cytometry and immunofluoresence. […] The IgE antibody also bound to FcεR-expressing human primary monocytes and cells of the monocytic cell line U937, which also express both IgE receptors, FcεRI and FcεRII at low densities (FIG. 3). The IgG1 antibody bound to the surface of A375 melanoma cells and U937 monocytic cells (FIG. 3C). […] Therefore, both chimaeric antibodies of known specificity could be engineered that recognised the expected tumour target and immune effector cells.

binding result: binds
B1: chimeric anti-HMW-MAA IgE antibody (antibody)
heavy: QVKLQQSGGGLVQPGGSMKLSCVVSGFTFSNYWMNWVRQSPEKGLEWIAEIRLKSNNFGRYYAESVKGRFTISRDDSKSSAYLQMINLRAEDTGIYYCTSYGNYVGHYFDHWGQGTTVTVSSASTQSPSVFPLTRCCKNIPSNATSVTLGCLATGYFPEPVMVTWDTGSLNGTTMTLPATTLTLSGHYATISLLTVSGAWAKQMFTCRVAHTPSSTDWVDNKTFSVCSRDFTPPTVKILQSSCDGGGHFPPTIQLLCLVSGYTPGTINITWLEDGQVMDVDLSTASTTQEGELASTQSELTLSQKHWLSDRTYTCQVTYQGHTFEDSTKKCADSNPRGVSAYLSRPSPFDLFIRKSPTITCLVVDLAPSKGTVNLTWSRASGKPVNHSTRKEEKQRNGTLTVTSTLPVGTRDWIEGETYQCRVTHPHLPRALMRSTTKTSGPRAAPEVYAFATPEWPGSRDKRTLACLIQNFMPEDISVQWLHNEVQLPDARHSTTQPRKTKGSGFFVFSRLEVTRAEWEQKDEFICRAVHEAASPSQTVQRAVSVNPGK
light: DIELTQSPKFMSTSVGDRVSVTCKASQNVDTNVAWYQQKPGQSPEPLLFSASYRYTGVPDRFTGSGSGTDFTLTISNVQSEDLAEYFCQQYNSYPLTFGGGTKLEIKRTVAAPSVFIFPPSDEQLKSGTASVVCLLNNFYPREAKVQWKVDNALQSGNSQESVTEQDSKDSTYSLSSTLTLSKADYEKHKVYACEVTHQGLSSPVTKSFNRGEC
notes: Mouse 225.28s variable regions on human epsilon and kappa constant regions; expressed in HEK cells; also called chimaeric IgE; chimaeric 225.28s IgE
